Several values for one entry are separate records, joined by “and”; a condition that tells them apart may be missing. Equal entries are not always repeated.
Tests used:
[1] = target: LrtA protein of Synechocystis sp. PCC 6803 (Synechocystis sp. PCC 6803); experiment: cross-linking; glutaraldehyde 1% final, 97 uM LrtA (protomer units), 50 mM Tris pH 8.0, 0.5 M NaCl, room temperature; aliquots on 12% SDS-PAGE
[2] = target: LrtA protein of Synechocystis sp. PCC 6803 (Synechocystis sp. PCC 6803); experiment: SEC; Superose 12 10/300 GL, 50 mM Tris pH 8.0, 0.7 M NaCl, 97 uM LrtA (protomer units) loaded in 100 uL, 25 °C; calibrated with blue dextran, albumin, RNase A

stoichiometry N [1]: 2
stoichiometry N [2]: 6 and 12
Substance: LrtA protein of Synechocystis sp. PCC 6803 (natural protein)
